# In patent publication US20100291074:
# Experiments:
# [1] = target: Aβ (amyloid beta peptide, length and aggregation state not specified; ˜4 kDa band) (UniProt P05067)
# [2] = target: Aβ42 (aggregation state not stated at the place of use) (UniProt P05067)
# Chain of Aβ42 (aggregation state not stated at the place of use) (P05067 whole entry, looked up): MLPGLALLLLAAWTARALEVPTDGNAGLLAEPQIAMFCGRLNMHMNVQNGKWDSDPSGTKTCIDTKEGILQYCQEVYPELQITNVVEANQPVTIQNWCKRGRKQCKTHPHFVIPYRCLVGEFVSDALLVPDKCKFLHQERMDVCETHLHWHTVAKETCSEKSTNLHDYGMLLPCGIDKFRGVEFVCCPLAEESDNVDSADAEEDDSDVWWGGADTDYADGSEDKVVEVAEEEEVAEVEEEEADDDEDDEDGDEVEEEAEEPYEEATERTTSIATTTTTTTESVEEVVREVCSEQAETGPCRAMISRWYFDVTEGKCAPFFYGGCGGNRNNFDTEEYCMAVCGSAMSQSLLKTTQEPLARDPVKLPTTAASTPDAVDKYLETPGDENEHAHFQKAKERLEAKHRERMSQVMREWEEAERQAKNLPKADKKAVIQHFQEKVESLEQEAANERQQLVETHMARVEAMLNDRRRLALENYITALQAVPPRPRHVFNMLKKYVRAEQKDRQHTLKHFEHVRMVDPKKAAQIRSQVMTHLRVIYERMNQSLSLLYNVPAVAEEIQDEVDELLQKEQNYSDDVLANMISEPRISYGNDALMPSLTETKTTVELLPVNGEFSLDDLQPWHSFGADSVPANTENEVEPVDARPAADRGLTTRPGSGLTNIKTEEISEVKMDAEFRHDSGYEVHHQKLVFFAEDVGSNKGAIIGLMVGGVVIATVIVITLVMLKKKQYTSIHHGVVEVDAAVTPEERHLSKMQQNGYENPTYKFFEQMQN
# Chain of mouse CypD, endogenous, in brain mitochondria and cultured cortical neurons of nonTg and Tg mAPP mice (chain, as listed by the source): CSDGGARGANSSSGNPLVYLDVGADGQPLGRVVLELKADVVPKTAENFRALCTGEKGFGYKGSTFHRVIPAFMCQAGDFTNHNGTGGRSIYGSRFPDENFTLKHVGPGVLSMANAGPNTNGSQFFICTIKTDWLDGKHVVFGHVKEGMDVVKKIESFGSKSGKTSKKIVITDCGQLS
# Chain of Aβ (amyloid beta peptide, length and aggregation state not specified; ˜4 kDa band) (P05067 whole entry, looked up, tested part not stated): as the sequence (P05067 whole entry, looked up) above
substance,measurement,setting,value
"mouse CypD, endogenous, in brain mitochondria and cultured cortical neurons of nonTg and Tg mAPP mice",cytochrome c release into the supernatant from isolated mitochondria treated with Aβ,[1],increased levels of cytochrome c release into the supernatant in nonTg-derived mitochondria treated with Aβ
same,"Aβ-mediated swelling of isolated cortical mitochondria, diminished in mitochondria lacking CypD, Aβ 1.6 µM",[2],˜60%
